In US8969060B2, “Modified glucose dehydrogenase” (Ikeda Food Research Co., Ltd., priority 2011, dated 2015):
Residue numbers refer to the chain shown, from its start. Names and notes keep the numbering of the source.

B1: K354R: modified GLD: SEQ ID NO: 1 with substitution K354R (protein, listed as Aspergillus terreus)
chain: MLGKLSFLSALSLAVAAPLSNSTSAKYDYIVIGGGTSGLAVANRLSEDPNVNVLILEAGGSVWNNPNVTNVDGYGLAFGSDIDWQYQSVNQPYGGNLSQVLRAGKALGGTSTINGMAYTRAEDVQIDAWETIGNTGWTWKNLFPYYRKSENFTVPTKSQTSLGASYEAGAHGHEGPLDVAFTQIESNNLTTYLNRTFQGMGLPWTEDVNGGKMRGFNLYPSTVNLEEYVREDAARAYYWPYKSRPNLHVLLNTFANRIVWDGEAHDGHITASGVEITSRNGTVRVINAEKEVIVSAGALKSPAILELSGIGNPSVLDKHNIPVKVNLPTVGENLQDQVNSHMDASGNTSISGTRAVSYPDVYDVFGDEAESVAKQIRANLKQYAADTAKANGNIMKAADLERLFEVQYDLIFKGRVPIAEVLNYPGSATSVFAEFWALLPFARGSVHIGSSNPAEFPVINPNYFMLDWDAKSYVAVAKYIRRSFESYPLSSIVKESTPGYDVIPRNASEQSWKEWVFDKNYRSNFHPVGTAAMMPREIGGVVDERLNVYGTTNVRVVDASVLPFQVCGHLVSTLYAVAERAADLIKADAGRR
modifications: SIGNAL (1)..(19)
B2: Y424T: modified GLD: SEQ ID NO: 1 with substitution Y424T (protein, listed as Aspergillus terreus)
chain: B1 chain with R354K, Y424T
modifications: SIGNAL (1)..(19)
B3: Y424V: modified GLD: SEQ ID NO: 1 with substitution Y424V (protein, listed as Aspergillus terreus)
chain: B1 chain with R354K, Y424V
modifications: SIGNAL (1)..(19)
B4: G426K: modified GLD: SEQ ID NO: 1 with substitution G426K (protein, listed as Aspergillus terreus)
chain: B1 chain with R354K, G426K
modifications: SIGNAL (1)..(19)
B5: G426I: modified GLD: SEQ ID NO: 1 with substitution G426I (protein, listed as Aspergillus terreus)
chain: B1 chain with R354K, G426I
modifications: SIGNAL (1)..(19)
B6: G426R: modified GLD: SEQ ID NO: 1 with substitution G426R (protein, listed as Aspergillus terreus)
chain: B1 chain with R354K, G426R
modifications: SIGNAL (1)..(19)
B7: Y424K: modified GLD: SEQ ID NO: 1 with substitution Y424K (protein, listed as Aspergillus terreus)
chain: B1 chain with R354K, Y424K
modifications: SIGNAL (1)..(19)
B8: Y424N: modified GLD: SEQ ID NO: 1 with substitution Y424N (protein, listed as Aspergillus terreus)
chain: B1 chain with R354K, Y424N
modifications: SIGNAL (1)..(19)
B9: G426H: modified GLD: SEQ ID NO: 1 with substitution G426H (protein, listed as Aspergillus terreus)
chain: B1 chain with R354K, G426H
modifications: SIGNAL (1)..(19)
B10: G426E: modified GLD: SEQ ID NO: 1 with substitution G426E (protein, listed as Aspergillus terreus)
chain: B1 chain with R354K, G426E
modifications: SIGNAL (1)..(19)
B11: G426M: modified GLD: SEQ ID NO: 1 with substitution G426M (protein, listed as Aspergillus terreus)
chain: B1 chain with R354K, G426M
modifications: SIGNAL (1)..(19)
B12: G352C: modified GLD: SEQ ID NO: 1 with substitution G352C (protein, listed as Aspergillus terreus)
chain: B1 chain with G352C, R354K
modifications: SIGNAL (1)..(19)
B13: Y424E: modified GLD: SEQ ID NO: 1 with substitution Y424E (protein, listed as Aspergillus terreus)
chain: B1 chain with R354K, Y424E
modifications: SIGNAL (1)..(19)
B14: G426N: modified GLD: SEQ ID NO: 1 with substitution G426N (protein, listed as Aspergillus terreus)
chain: B1 chain with R354K, G426N
modifications: SIGNAL (1)..(19)
B15: Y424D: modified GLD: SEQ ID NO: 1 with substitution Y424D (protein, listed as Aspergillus terreus)
chain: B1 chain with R354K, Y424D
modifications: SIGNAL (1)..(19)
B16: G426P: modified GLD: SEQ ID NO: 1 with substitution G426P (protein, listed as Aspergillus terreus)
chain: B1 chain with R354K, G426P
modifications: SIGNAL (1)..(19)
B17: K354S: modified GLD: SEQ ID NO: 1 with substitution K354S (protein, listed as Aspergillus terreus)
chain: B1 chain with R354S
modifications: SIGNAL (1)..(19)
B18: G352D: modified GLD: SEQ ID NO: 1 with substitution G352D (protein, listed as Aspergillus terreus)
chain: B1 chain with G352D, R354K
modifications: SIGNAL (1)..(19)
B19: Y424Q: modified GLD: SEQ ID NO: 1 with substitution Y424Q (protein, listed as Aspergillus terreus)
chain: B1 chain with R354K, Y424Q
modifications: SIGNAL (1)..(19)
B20: Y424R: modified GLD: SEQ ID NO: 1 with substitution Y424R (protein, listed as Aspergillus terreus)
chain: B1 chain with R354K, Y424R
modifications: SIGNAL (1)..(19)
B21: G352A: modified GLD: SEQ ID NO: 1 with substitution G352A (protein, listed as Aspergillus terreus)
chain: B1 chain with G352A, R354K
modifications: SIGNAL (1)..(19)
B22: G426F: modified GLD: SEQ ID NO: 1 with substitution G426F (protein, listed as Aspergillus terreus)
chain: B1 chain with R354K, G426F
modifications: SIGNAL (1)..(19)
B23: Y424S: modified GLD: SEQ ID NO: 1 with substitution Y424S (protein, listed as Aspergillus terreus)
chain: B1 chain with R354K, Y424S
modifications: SIGNAL (1)..(19)
B24: Y424C: modified GLD: SEQ ID NO: 1 with substitution Y424C (protein, listed as Aspergillus terreus)
chain: B1 chain with R354K, Y424C
modifications: SIGNAL (1)..(19)
B25: G426L: modified GLD: SEQ ID NO: 1 with substitution G426L (protein, listed as Aspergillus terreus)
chain: B1 chain with R354K, G426L
modifications: SIGNAL (1)..(19)
B26: G426S: modified GLD: SEQ ID NO: 1 with substitution G426S (protein, listed as Aspergillus terreus)
chain: B1 chain with R354K, G426S
modifications: SIGNAL (1)..(19)

Key:
[1] = Relative enzymatic activity of GLD (DCIP/1-m-PMS, plate reader, yeast culture supernatant) with proflavin hydrochloride present; type: biochemical; details: site-specific mutants, inhibitor final concentration 1 mM
In short: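 Culture supernatant diluted and mixed with reagent of phosphate buffer pH 7.0, 1.0 M D-glucose, 3 mM DCIP, 3 mM 1-m-PMS and methanol (0.1:1:0.14:0.2:0.06). DCIP absorbance decrease at 600 nm followed; proflavin hydrochloride in methanol replaced methanol at 1 mM final. Activity expressed as % of inhibitor-free blank.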

[2] = Relative enzymatic activity of GLD (DCIP/1-m-PMS, plate reader, yeast culture supernatant) with 1,10-phenanthroline present; type: biochemical; details: site-specific mutants, inhibitor final concentration 1 mM
In short: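 Yeast transformants grown in YPD, 30° C., 24 h; diluted culture supernatant assayed in phosphate buffer pH 7.0 with D-glucose, DCIP and 1-m-PMS, DCIP absorbance change at 600 nm. Relative activity (%) = activity with 1 mM 1,10-phenanthroline (final, replacing methanol) divided by activity without it.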

| Molecule | Relative Activity [%] Proflavin hydrochloride [1] [%] | Relative Activity [%] 1,10-Phenanthroline [2] [%] |
| --- | --- | --- |
| B1 | 12.6 | 64.4 |
| B2 | 43.4 | 71.2 |
| B3 | 46.7 | 49.1 |
| B4 | 65.4 | 94.3 |
| B5 | 63.4 | 93.2 |
| B6 | 43.0 | 71.5 |
| B7 | 52.5 | 71.9 |
| B8 | 55.6 | 89.9 |
| B9 | 48.7 | 54.9 |
| B10 | 32.6 | 64.4 |
| B11 | 58.8 | 78.3 |
| B12 | 43.8 | 86.2 |
| B13 | 37.1 | 87.5 |
| B14 | 51.9 | 69.6 |
| B15 | 37.2 | 87.1 |
| B16 | 33.3 | 56.1 |
| B17 | 21.3 | 71.6 |
| B18 | 42.7 | 87.8 |
| B19 | 50.2 | 80.2 |
| B20 | 55.6 | 70.3 |
| B21 | 47.9 | 76.1 |
| B22 | 51.8 | 60.5 |
| B23 | 61.0 | 81.4 |
| B24 | 45.9 | 73.7 |
| B25 | 63.7 | 91.2 |
| B26 | 58.0 | 80.9 |
